Measurements from patent US20220144916A1 (University of Texas, published 2022).

Target: human IgG1 coated on ELISA plates (human, UniProt P01857-1 1-330 = IgG part)
Assay: competition ELISA, human IgG1 coat; blocked ligand FLAG-tagged FcγRIIIA, anti-FLAG-HRP [panel B]

B1: HCMV viral Fcγ receptor gp34 (residues 24-182), soluble, strep and FLAG tags (receptor)
chain: SSSNAVEPTKKPLKLANYRATCEDRTRTLVTRLNTSHHSVVWQRYDIYSRYMRRMPPLCIITDAYKETTRQGGAAFACTRQNLTLYNLTVKDTGVYLLQDQYTGDVEAFYLIIHPRSFCRALETRRCFYPGPGRVVVTDSQEADRAIISDLKRQWSGLS
notes: range 24-182
IC50 (read off the curve): ~30 nM
